This assay addresses SecY(S329C)EG (E. coli) (UniProt P0AGA2).

MKKTAIAIAVALAGFATVAQC showed a characteristic lifetime of the open channels at φ = −140 mV after cross-linking by KTT of 14 s.

For the origin of these results see article PMC7023257.
